This is an account of results in paper doi:10.1101/2025.10.26.684595.

In assay [1] the target is human PIEZO2 in the cryo-EM complexes with MDFIC and MDFIC2 (human) (UniProt Q9H5I5). Description: cryo-EM structure.
For assay [2], the target named is mouse PIEZO1 in the cryo-EM complex with mouse MDFI (mouse) (UniProt E2JF22). Kind of assay: cryo-EM structure. The note with it: remark: other sources report otherwise.

As for “human PIEZO2 in the cryo-EM complexes with MDFIC and MDFIC2, Q9H5I5”, the stoichiometry N in assay [1] is 3.
For “mouse PIEZO1 in the cryo-EM complex with mouse MDFI, E2JF22 1-2547”, the stoichiometry N in assay [2] is 3.
